T1: Bfl-1, Q16548
T1 chain: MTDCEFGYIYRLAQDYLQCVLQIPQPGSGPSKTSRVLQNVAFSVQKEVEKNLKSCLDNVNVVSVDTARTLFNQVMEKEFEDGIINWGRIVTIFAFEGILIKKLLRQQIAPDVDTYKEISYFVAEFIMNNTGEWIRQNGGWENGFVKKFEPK

T2: Mcl-1, Q07820
T2 chain: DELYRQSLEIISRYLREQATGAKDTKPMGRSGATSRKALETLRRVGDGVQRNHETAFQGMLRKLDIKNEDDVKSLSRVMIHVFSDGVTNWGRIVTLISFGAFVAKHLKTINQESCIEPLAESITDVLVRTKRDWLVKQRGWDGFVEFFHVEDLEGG

B1: SLC38A8 (peptide)
chain: LNLLMISVAFDRVIGDQLEKLCDSLL
B2: KCNH1 (peptide)
chain: VHKHSRLAEVLQLGLDILPQYKQEAP
B3: SLC26A4 (peptide)
chain: LSIIYTLVEIFQNIGDTNLADFTAGL
B4: RBL1 (peptide)
chain: WTLFVYTKGNFRMILDDLVNSYHLLL
B5: TAP1 (peptide)
chain: MSILTIASAVLEFVLDGIYNNTMGHV
B6: PPAT (peptide)
chain: RLRQLGVAKKFGVLLDNFKGKRIVLV
B7: NOX4 (peptide)
chain: TETKATFGVHDKIVGDWTERFRDLLL
B8: PMAIP1 (peptide)
chain: AELEVECATQLRRFLDKLNFRQKLLN
B9: GBP6 (peptide)
chain: NDDTPWIARTLDNLADELTAILSAPA
B10: PRCP (peptide)
chain: DDMFEPHSWNDKELSDDCFQQWGVRP
B11: FBXW5 (peptide)
chain: LTETSLISGNLHRIGDITSCSVLWLN
B12: GBP6 (peptide)
chain: NDDTPWIARTDDNLADELTAILSAPA
B13: FBXO30 (peptide)
chain: LCQLSCVSKLDRDVCGSLLQSRGMVI
B14: ZNF295 (peptide)
chain: ERLKGQLCDVDLIVGDQKFRAHKNVL
B15: PURB (peptide)
chain: FKAWGKFGGADCRYADEMKEIQERQR
B16: PRKD3 (peptide)
chain: IQENVDISTVDQIFADEVLGSGQFGI
B17: NBEAL2 (peptide)
chain: AELRLFLAQRDRWLCDSCPASRATCV
B18: WRAP53 (peptide)
chain: RKDAELLCWDDRQSGYPLWSLGREVT
B19: TMEM214 (peptide)
chain: SFLSAHCASHLAWFLDSLTSLSQRLQ
B20: FUT8 (peptide)
chain: KKLKNLEGNELQRHADEFLLDLGHHE
B21: PRDX4 (peptide)
chain: LDFTFVCPTEDIAFGDRLEEFRSINT
B22: RNF160 (peptide)
chain: WLKGDILGEKLVNLLDCLCNEDLESR
B23: ISOC1 (peptide)
chain: AGYELLIQKFLSLYGDQIDMHRKFVV
B24: FOXI1 (peptide)
chain: PDKRLTLSQIYQYVADNFPFYNKSKA
B25: PRCP (peptide)
chain: DDMFEPHSWNLKELLDDCFQQWGVRP
B26: FOXI1 (peptide)
chain: PDKRLTLSQIDQYVADNFPFYNKSKA
B27: PRDX4 (peptide)
chain: LDFTFVCPTEIIAFGDRLEEFRSINT
B28: DHX30 (peptide)
chain: PVESSWIAPEDRLQSDDILPLGKDSG
B29: BBS10 (peptide)
chain: RMIVDCVSSHLKKTGDGAKTFIIFLC
B30: DDX4 (peptide)
chain: FSKREKLVEILRNILDERTMVFVETK
B31: DHX30 (peptide)
chain: PVESSWIAPELRLQSDDILPLGKDSG
B32: DHX30 (peptide)
chain: PVESSWIAPELRLQLDDILPLGKDSG

Assays:
Assay in all cases: peptide SPOT array, c-Myc-tagged receptor at 1 uM or 100 nM, anti-c-Myc-Cy3
[1] = molecular target: T1, Bfl-1, Q16548
[2] = molecular target: T2, Mcl-1, Q07820
[3] = molecular target: Bcl-xL, Q07817
Chain of Bcl-xL, Q07817 (Q07817 1-209): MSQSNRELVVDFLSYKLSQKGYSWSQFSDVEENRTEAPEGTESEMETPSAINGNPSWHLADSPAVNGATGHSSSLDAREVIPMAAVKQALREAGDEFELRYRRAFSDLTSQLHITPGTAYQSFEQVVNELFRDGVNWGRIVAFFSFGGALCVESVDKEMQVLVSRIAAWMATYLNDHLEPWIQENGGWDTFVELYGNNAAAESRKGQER

Row | Binder | SPOT signal as a fraction of Bim BH3's signal on the same receptor and array [1] | SPOT signal as a fraction of Bim BH3's signal on the same receptor and array [2] | SPOT signal as a fraction of Bim BH3's signal on the same receptor and array [3]
1 | B1 | 0.04 | 0.04 | 0.05
2 | B2 | 0.07 | 0.14 | 0.12
3 | B3 | 0.03 | 0.07 | 0.06
4 | B4 | 0.13 | 0.11 | 0.09
5 | B5 | 0.04 | 0.04 | 0.06
6 | B6 | 0.69 | 0.93 | 1.27
7 | B7 | 0.07 | 0.05 | 0.05
8 | B8 | 0.17 | 0.1 | 0.2
9 | B9 | 0.04 | 0.04 | 0.04
10 | B10 | 0.05 | 0.04 | 0.07
11 | B11 | 0.04 | 0.04 | 0.06
12 | B12 | 0.03 | 0.04 | 0.04
13 | B13 | 0.11 | 0.08 | 0.14
14 | B14 | 0.07 | 0.08 | 0.16
15 | B15 | 0.76 | 0.83 | 0.66
16 | B16 | 0.04 | 0.03 | 0.07

Row | Binder | SPOT signal as a fraction of Bim BH3's signal on the same receptor and array [1] | SPOT signal as a fraction of Bim BH3's signal on the same receptor and array [2] | SPOT signal as a fraction of Bim BH3's signal on the same receptor and array [3]
17 | B17 | 0.33 | 0.5 | 0.34
18 | B18 | 0.04 | 0.04 | 0.06
19 | B19 | 0.08 | 0.07 | 0.08
20 | B20 | 0.05 | 0.05 | 0.12
21 | B21 | 0.03 | 0.04 | 0.06
22 | B22 | 0.05 | 0.06 | 0.07
23 | B23 | 0.06 | 0.13 | 0.13
24 | B24 | 0.56 | 0.56 | 1.74
25 | B25 | 0.05 | 0.04 | 0.07
26 | B26 | 0.42 | 0.39 | 0.84
27 | B27 | 0.03 | 0.04 | 0.06
28 | B28 | 0.04 | 0.04 | 0.05
29 | B29 | 0.36 | 0.17 | 1
30 | B30 | 0.08 | 0.15 | 0.08
31 | B31 | 0.04 | 0.04 | 0.05
32 | B32 | 0.04 | 0.04 | 0.05
